Molecular target: recombinant influenza HA3-protein (from H3N2, Wyoming, March 2003, Sino Biological Inc.) (influenza H3N2, Wyoming, March 2003)
Assay: SPR imaging (IBIS MX96), antibody captured on anti-human-IgG chip, HA3 injected at 1 µg/ml, global 1:1 fit

B1: AT10-004 (antibody, V domains shown)
VH: RASQSVSRYLA
VL: RASQSVSRYLA
- Kd: 0.07 nM
- koff: 1e-06 s⁻¹
- kon: 14000 M⁻¹ s⁻¹

— patent publication US20130331552A1
